Test results: IntAct's records for PubMed 25416956

Columns and labels:
[1] = molecular target: tm239_human TMEM239 (UniProt Q8WW34)
[2] = molecular target: ldaf1_human LDAF1 (UniProt Q96B96)
[3] = molecular target: reep6_human REEP6 (UniProt Q96HR9)
[4] = molecular target: praf1_human RABAC1 (UniProt Q9UI14)
[5] = molecular target: tfp11_human TFIP11 (UniProt Q9UBB9)
[6] = molecular target: praf1_human RABAC1 (UniProt Q9UI14); remark: listed apart in the source
[7] = molecular target: tm239_human TMEM239 (UniProt Q8WW34); remark: listed apart in the source
[8] = molecular target: reep6_human REEP6 (UniProt Q96HR9); remark: listed apart in the source
[9] = molecular target: ldaf1_human LDAF1 (UniProt Q96B96); remark: listed apart in the source
[10] = molecular target: tfp11_human TFIP11 (UniProt Q9UBB9); remark: listed apart in the source
[11] = molecular target: tfp11_human TFIP11 (UniProt Q9UBB9); remark: listed apart in the source
[12] = molecular target: praf1_human RABAC1 (UniProt Q9UI14); remark: listed apart in the source
[13] = molecular target: reep6_human REEP6 (UniProt Q96HR9); remark: listed apart in the source
[14] = molecular target: atrap_human AGTRAP (UniProt Q6RW13)
[15] = molecular target: ldaf1_human LDAF1 (UniProt Q96B96); remark: listed apart in the source
[16] = molecular target: tm239_human TMEM239 (UniProt Q8WW34); remark: listed apart in the source

Measured: effect of a mutation on the interaction

Sequence of ldaf1_human LDAF1 (Q96B96 whole entry): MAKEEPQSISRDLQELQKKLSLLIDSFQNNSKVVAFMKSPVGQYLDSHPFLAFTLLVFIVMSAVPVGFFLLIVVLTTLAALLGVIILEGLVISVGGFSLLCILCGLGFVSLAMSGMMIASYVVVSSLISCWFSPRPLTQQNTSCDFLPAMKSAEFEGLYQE
Sequence of reep6_human REEP6 (Q96HR9 whole entry): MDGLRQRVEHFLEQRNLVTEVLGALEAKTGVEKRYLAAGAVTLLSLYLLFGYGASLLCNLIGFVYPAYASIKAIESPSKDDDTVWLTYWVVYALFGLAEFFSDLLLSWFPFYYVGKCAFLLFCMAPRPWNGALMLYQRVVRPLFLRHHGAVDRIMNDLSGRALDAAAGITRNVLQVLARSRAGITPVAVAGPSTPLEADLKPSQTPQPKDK
Sequence of praf1_human RABAC1 (Q9UI14 whole entry): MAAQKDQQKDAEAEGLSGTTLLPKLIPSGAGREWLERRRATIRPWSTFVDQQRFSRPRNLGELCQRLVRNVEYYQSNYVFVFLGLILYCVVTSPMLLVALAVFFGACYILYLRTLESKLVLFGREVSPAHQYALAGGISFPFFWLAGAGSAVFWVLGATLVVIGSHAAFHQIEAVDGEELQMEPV
Sequence of tm239_human TMEM239 (Q8WW34 whole entry): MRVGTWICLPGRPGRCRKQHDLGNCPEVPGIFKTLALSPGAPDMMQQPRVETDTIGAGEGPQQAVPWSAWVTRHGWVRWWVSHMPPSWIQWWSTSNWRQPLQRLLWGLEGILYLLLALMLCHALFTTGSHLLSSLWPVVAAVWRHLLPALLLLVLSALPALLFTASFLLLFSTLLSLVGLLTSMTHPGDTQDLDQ
Sequence of tfp11_human TFIP11 (Q9UBB9 whole entry): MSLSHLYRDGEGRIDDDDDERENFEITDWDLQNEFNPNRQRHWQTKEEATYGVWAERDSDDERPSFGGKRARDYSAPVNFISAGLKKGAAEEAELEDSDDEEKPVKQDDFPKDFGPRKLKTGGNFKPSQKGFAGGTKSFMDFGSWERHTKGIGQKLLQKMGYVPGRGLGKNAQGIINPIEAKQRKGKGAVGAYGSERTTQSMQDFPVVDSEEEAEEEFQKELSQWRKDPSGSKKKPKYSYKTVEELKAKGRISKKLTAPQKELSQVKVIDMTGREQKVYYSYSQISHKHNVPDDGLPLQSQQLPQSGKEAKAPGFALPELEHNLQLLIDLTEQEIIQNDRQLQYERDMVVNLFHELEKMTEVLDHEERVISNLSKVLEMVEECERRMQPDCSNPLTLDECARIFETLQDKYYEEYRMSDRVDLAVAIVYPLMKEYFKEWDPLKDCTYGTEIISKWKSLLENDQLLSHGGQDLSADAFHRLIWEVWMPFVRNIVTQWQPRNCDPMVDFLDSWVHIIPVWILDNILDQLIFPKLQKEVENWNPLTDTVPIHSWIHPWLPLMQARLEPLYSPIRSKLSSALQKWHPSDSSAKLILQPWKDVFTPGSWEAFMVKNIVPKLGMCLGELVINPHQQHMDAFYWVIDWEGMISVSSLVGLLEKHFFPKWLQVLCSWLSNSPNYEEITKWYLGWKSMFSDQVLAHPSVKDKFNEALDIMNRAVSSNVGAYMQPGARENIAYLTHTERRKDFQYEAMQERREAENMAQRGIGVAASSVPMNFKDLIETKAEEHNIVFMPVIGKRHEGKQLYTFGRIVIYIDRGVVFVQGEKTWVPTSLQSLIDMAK
Sequence of atrap_human AGTRAP (Q6RW13 whole entry): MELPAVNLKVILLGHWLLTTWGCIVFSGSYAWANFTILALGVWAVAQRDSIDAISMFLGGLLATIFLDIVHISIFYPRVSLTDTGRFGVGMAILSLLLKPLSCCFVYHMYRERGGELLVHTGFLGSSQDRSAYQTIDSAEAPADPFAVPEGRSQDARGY

Atypical kinase COQ8A, mitochondrial (Homo sapiens), Q8NI60 E551K
disrupting interaction: [1] | [2] | [3] | [4] | [5]

Atypical kinase COQ8A, mitochondrial (Homo sapiens), Q8NI60 G272V
disrupting interaction: [6] | [7] | [8] | [9] | [10]

Atypical kinase COQ8A, mitochondrial (Homo sapiens), Q8NI60 R213W
disrupting interaction: [11] | [12] | [13] | [14] | [15] | [16]
